Laboratory results as given in the supplement of paper PMC10065799, “High-throughput profiling of sequence recognition by tyrosine kinases and SH2 domains using bacterial peptide display” (eLife, 2023).

Legend:
SHP2-C SH2 = assay: SH2 binding enrichment of the phosphorylated peptide, bacterial display (enrichment ratio); higher = better substrate or ligand; peptides without Tyr show the background
c-Src SH2 = assay: as above
Grb2 SH2 = Grb2 SH2 (UniProt P62993); assay: as above
MERTK = MERTK (UniProt Q12866); assay: phosphorylation enrichment, bacterial display (enrichment ratio); higher = better substrate or ligand; peptides without Tyr show the background
EPHB1 = EPHB1 (UniProt P54762); assay: as above
Jak2 = Jak2 (UniProt O60674); assay: as above
c-Src = assay: as above
FGFR1 = FGFR1 (UniProt P11362); assay: as above
c-Abl (mouse) = assay: as above
Hck = Hck (UniProt P08631); assay: as above
AncSZ = assay: as above
EPHB2 = EPHB2 (UniProt P29323); assay: as above
FGFR3 = FGFR3 (UniProt P22607); assay: as above
Fer (mouse) = assay: as above
Fyn = Fyn (UniProt P06241); assay: as above
Fes = Fes (UniProt P07332); assay: as above
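Wherever SH2 binding enrichment of the phosphorylated peptide, bacterial display is given: peptide library displayed on the E. coli surface as eCPX fusions, selected cells deep-sequenced, score is each peptide's frequency after selection divided by its frequency in the input.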
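Wherever phosphorylation enrichment, bacterial display is given: 11-residue human phosphosite peptides and single-mutation variants displayed on the E. coli surface, counted by deep sequencing, each peptide's frequency after selection divided by its frequency in the unselected input library; frequency after pTyr selection over input frequency; kinase dosed for 20-30% of maximal phosphorylation in three min.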

MERTK, sequence (Q12866 whole entry, looked up): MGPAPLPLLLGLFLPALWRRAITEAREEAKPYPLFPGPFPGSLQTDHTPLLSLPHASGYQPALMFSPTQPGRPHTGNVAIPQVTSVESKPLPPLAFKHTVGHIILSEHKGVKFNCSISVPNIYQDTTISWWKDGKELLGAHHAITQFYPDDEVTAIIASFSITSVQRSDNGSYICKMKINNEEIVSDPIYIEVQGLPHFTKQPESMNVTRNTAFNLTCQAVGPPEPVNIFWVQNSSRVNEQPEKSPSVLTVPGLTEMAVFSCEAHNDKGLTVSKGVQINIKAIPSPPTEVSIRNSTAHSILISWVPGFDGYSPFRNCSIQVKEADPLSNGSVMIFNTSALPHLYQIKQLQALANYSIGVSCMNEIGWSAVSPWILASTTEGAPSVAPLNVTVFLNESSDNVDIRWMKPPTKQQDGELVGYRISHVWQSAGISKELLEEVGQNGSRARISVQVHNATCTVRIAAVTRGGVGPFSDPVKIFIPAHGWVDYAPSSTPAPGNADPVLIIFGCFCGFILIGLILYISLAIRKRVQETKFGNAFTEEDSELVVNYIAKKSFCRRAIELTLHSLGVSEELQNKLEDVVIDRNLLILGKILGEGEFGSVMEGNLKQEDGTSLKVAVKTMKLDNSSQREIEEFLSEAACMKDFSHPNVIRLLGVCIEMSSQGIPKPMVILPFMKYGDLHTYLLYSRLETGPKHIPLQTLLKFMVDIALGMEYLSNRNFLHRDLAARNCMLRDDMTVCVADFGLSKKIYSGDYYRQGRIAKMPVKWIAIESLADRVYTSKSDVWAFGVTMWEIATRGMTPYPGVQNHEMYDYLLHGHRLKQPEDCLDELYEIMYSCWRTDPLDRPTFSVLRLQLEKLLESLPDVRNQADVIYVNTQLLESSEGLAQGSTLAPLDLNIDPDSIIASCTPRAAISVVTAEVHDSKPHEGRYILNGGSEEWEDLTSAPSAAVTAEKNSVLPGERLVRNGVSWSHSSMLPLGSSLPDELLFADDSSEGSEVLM
EPHB1, sequence (P54762 whole entry, looked up): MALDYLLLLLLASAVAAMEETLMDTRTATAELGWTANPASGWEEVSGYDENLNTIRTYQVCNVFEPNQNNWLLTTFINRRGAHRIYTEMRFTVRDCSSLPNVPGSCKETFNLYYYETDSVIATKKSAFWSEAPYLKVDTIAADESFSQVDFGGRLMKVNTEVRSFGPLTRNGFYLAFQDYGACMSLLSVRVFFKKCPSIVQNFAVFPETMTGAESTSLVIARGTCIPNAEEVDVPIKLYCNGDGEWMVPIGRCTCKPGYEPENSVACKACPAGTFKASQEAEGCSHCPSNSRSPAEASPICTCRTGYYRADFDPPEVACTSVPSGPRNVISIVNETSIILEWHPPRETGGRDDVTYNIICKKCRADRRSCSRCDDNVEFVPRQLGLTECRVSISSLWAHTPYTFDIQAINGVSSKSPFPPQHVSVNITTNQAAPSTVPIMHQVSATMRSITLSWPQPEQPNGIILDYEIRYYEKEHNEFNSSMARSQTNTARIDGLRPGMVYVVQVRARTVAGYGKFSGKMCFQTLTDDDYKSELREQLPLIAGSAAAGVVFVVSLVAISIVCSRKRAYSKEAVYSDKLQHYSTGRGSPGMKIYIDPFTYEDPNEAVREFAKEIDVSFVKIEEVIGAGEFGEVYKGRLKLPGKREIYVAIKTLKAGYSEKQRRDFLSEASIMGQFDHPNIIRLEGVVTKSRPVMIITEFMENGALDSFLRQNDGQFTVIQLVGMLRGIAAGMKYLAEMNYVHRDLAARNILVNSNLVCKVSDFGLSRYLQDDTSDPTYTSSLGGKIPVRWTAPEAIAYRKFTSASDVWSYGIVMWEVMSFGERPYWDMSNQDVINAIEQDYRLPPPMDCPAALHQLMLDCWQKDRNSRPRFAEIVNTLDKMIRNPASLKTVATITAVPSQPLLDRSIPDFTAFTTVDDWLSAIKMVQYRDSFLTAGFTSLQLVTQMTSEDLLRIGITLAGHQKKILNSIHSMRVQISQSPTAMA
EPHB2, sequence (P29323 whole entry, looked up): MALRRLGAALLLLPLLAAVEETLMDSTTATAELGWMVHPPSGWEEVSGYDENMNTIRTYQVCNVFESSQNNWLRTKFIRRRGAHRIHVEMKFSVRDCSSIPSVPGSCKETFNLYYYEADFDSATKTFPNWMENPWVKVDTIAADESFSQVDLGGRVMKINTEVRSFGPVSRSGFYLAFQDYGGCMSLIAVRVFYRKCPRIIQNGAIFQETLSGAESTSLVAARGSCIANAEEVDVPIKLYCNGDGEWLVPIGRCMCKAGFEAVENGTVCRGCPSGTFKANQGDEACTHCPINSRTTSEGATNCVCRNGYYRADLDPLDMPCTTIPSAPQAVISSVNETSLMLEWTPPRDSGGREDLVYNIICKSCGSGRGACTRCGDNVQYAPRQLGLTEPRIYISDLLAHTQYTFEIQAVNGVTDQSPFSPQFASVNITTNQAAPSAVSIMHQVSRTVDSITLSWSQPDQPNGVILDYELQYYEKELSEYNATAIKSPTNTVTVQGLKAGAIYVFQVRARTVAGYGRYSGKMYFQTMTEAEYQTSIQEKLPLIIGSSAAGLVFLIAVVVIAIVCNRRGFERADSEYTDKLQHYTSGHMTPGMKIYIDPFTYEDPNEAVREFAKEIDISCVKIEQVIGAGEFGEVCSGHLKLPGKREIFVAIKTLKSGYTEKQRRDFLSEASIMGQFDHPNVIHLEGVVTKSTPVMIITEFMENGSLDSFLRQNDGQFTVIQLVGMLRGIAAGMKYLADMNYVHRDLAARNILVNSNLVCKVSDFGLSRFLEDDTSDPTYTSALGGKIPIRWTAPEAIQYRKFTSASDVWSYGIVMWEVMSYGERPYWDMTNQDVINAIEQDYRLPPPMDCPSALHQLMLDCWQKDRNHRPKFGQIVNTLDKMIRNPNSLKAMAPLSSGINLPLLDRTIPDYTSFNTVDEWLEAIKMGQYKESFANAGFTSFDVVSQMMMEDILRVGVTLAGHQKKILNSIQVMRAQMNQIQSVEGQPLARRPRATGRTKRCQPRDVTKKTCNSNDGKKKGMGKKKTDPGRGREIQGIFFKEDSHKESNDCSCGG
Jak2, sequence (O60674 whole entry, looked up): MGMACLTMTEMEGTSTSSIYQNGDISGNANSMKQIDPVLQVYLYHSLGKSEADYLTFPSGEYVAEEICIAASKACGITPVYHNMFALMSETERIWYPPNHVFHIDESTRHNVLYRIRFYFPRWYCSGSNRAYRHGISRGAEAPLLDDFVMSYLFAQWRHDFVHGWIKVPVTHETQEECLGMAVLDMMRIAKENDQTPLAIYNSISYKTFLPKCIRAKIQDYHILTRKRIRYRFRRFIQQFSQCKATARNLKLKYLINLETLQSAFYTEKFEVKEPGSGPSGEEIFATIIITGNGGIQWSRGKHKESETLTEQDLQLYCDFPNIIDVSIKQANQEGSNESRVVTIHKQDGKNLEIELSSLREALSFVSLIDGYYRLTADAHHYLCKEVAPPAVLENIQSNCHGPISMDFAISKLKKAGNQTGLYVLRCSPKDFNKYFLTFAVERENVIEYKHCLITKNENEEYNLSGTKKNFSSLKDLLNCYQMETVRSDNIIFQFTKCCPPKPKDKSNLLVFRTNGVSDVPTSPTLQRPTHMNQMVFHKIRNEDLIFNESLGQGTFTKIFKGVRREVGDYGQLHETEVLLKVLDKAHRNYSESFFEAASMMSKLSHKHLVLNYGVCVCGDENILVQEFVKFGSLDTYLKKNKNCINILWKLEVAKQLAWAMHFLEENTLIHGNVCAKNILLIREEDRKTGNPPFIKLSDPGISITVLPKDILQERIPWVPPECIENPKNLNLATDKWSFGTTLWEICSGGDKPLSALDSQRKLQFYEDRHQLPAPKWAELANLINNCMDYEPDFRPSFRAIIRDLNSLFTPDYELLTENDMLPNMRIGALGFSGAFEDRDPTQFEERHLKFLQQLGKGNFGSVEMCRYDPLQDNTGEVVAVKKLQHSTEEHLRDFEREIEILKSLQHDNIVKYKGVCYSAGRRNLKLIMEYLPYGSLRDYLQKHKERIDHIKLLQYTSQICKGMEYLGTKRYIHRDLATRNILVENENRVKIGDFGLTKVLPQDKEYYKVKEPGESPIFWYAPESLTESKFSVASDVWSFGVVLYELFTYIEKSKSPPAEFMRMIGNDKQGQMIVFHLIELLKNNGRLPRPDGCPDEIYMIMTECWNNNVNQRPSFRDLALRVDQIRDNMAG
Fyn, sequence (P06241 whole entry, looked up): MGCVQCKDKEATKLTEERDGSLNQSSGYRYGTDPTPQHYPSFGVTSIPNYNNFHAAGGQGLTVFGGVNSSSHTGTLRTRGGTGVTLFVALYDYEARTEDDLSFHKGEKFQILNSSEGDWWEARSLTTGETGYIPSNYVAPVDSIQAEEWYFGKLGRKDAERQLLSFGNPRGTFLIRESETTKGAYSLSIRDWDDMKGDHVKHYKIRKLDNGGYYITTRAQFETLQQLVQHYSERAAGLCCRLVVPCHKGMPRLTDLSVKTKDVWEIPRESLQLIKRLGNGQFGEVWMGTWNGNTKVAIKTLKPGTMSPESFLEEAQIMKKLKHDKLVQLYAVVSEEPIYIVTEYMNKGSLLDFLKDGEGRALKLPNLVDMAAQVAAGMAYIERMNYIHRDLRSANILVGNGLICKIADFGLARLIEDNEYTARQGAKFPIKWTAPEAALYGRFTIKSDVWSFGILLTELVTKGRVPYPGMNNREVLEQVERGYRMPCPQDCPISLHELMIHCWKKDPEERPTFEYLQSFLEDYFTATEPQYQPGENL
Grb2 SH2, sequence (P62993 whole entry, looked up): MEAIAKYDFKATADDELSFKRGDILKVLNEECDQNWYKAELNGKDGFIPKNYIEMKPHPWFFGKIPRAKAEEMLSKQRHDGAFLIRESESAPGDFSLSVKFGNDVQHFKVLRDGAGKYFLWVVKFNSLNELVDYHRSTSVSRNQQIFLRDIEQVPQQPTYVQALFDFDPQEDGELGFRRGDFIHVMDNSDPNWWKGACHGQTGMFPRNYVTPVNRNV

Row | Sequence | SH2 binding enrichment (SHP2-C SH2) | SH2 binding enrichment (c-Src SH2) | SH2 binding enrichment (Grb2 SH2) | phosphorylation enrichment (MERTK) | phosphorylation enrichment (EPHB1) | phosphorylation enrichment (Jak2) | phosphorylation enrichment (c-Src) | phosphorylation enrichment (FGFR1) | phosphorylation enrichment (c-Abl (mouse)) | phosphorylation enrichment (Hck) | phosphorylation enrichment (AncSZ) | phosphorylation enrichment (EPHB2) | phosphorylation enrichment (FGFR3) | phosphorylation enrichment (Fer (mouse)) | phosphorylation enrichment (Fyn) | phosphorylation enrichment (Fes)
1 | FPILNYKDIRK [CFAP221_Y798_M795I] | 0.696 | 0.447 | 0.76 | 0.453 | 0.478 | 0.745 | 0.49 | 0.431 | 0.486 | 0.391 | 0.546 | 0.487 | 0.464 | 0.449 | 0.368 | 0.666
2 | ALAHKYQGGGG [HBB_Y146_H147Q] | 0.546 | 0.415 | 0.691 | 0.588 | 0.204 | 0.527 | 0.491 | 0.476 | 0.565 | 0.375 | 0.824 | 0.436 | 0.476 | 0.283 | 0.451 | 0.58
3 | NGEDPYAGSTD [XRCC1_Y515] | 0.782 | 0.547 | 0.638 | 0.399 | 0.431 | 0.809 | 0.55 | 0.646 | 0.779 | 0.581 | 1.21 | 0.508 | 0.67 | 0.431 | 0.524 | 1.1
4 | VRTSKYRGGGG [HBA1_Y141_L137R] | 0.571 | 0.353 | 0.602 | 0.648 | 0.366 | 0.609 | 0.542 | 0.423 | 0.637 | 0.424 | 0.64 | 0.407 | 0.618 | 0.365 | 0.426 | 0.676
5 | RAILDYIASKY [GSTA3_Y74_N73D] | 0.872 | 0.746 | 1.06 | 0.473 | 0.456 | 0.718 | 0.376 | 0.512 | 0.616 | 0.471 | 0.867 | 0.646 | 0.661 | 0.665 | 0.564 | 0.761
6 | AMIADYMFWLG [SPATA16_Y290] | 1.17 | 0.806 | 1.16 | 2.52 | 7.43 | 3.71 | 1.3 | 12.2 | 1.24 | 1.49 | 2.24 | 15.2 | 10.8 | 2.01 | 0.727 | 1.31
7 | REESTYLPLTS [ICAM3_Y527] | 0.811 | 0.787 | 0.961 | 0.803 | 0.88 | 1.41 | 2.39 | 1.19 | 0.674 | 3.17 | 1.62 | 0.894 | 1.51 | 1 | 1.35 | 1.75
